According to publication PMC10998612:

Target: eIF2 trimer (recombinant, not phosphorylated), P05198;P20042;P41091
Experiment: fluorescence polarisation
Settings: chain shown with the change; 2.0 µM eIF2 trimer (highest analyte concentration); fluorescein-labeled R3 420-466 peptide as probe; parent: est. 90; read off a plot

Sequence of eIF2 trimer (recombinant, not phosphorylated), P05198;P20042;P41091 (chain, as listed by the source, chain 1 of 3): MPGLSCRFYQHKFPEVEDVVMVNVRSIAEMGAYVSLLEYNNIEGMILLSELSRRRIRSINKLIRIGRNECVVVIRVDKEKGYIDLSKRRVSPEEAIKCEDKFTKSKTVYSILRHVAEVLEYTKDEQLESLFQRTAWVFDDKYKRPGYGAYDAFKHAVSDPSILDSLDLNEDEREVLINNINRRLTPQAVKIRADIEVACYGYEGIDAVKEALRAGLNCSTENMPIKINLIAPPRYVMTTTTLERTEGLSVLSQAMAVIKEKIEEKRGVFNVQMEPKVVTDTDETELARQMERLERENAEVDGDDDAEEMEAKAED
Sequence of eIF2 trimer (recombinant, not phosphorylated), P05198;P20042;P41091 (chain, as listed by the source, chain 2 of 3): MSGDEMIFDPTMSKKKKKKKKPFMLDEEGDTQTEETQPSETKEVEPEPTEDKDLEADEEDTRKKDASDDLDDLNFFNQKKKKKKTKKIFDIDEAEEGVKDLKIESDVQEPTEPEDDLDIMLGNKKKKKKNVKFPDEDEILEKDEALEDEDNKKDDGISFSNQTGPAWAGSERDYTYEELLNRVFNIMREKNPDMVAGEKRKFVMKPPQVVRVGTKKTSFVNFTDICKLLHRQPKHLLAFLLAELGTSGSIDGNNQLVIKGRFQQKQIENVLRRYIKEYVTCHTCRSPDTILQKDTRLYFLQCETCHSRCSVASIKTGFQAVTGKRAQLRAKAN
Sequence of eIF2 trimer (recombinant, not phosphorylated), P05198;P20042;P41091 (chain, as listed by the source, chain 3 of 3): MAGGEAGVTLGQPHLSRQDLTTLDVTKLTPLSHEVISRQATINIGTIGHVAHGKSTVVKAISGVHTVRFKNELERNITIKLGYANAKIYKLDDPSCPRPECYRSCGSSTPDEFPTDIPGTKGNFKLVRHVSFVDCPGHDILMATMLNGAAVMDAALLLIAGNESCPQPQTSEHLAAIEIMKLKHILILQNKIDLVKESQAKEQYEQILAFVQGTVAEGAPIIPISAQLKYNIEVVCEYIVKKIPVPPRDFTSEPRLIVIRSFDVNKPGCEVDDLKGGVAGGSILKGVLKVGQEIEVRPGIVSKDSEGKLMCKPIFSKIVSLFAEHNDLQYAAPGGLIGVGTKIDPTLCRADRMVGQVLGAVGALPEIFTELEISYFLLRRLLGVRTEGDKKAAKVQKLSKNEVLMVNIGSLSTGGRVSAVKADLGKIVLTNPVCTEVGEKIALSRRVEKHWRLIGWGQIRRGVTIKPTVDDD

response: 27 mP
Binder: ASTPPASAALKAAVYRPGEDTEEEEDEDVDSEDKEDDSEAALGEAES
